System: H3K9 on core histones or nucleosomes from HeLa cells
Experiment: In vitro demethylation assay
Format: biochemical
Conditions: 5 hours at 37° C., Western blot; for demethylation of trimethyl H3K9: core histones and nucleosomes from HeLa cells
Procedure: FIG. 2 JMJD2C interacts with chromatin and demethylates H3K9. LNCaP cells were incubated with or without the AR agonist R1881 (a, b), and transfected with stealth RNAi (b). ChIP or Re-ChIP was performed with the indicated antibodies. The precipitated chromatin was amplified by PCR using primers flanking the promoter region (ARE I+II) and the enhancer region (ARE III) of the PSA gene, the promoter region (ARE) of the KLK2 gene, or the promoters of the unrelated GAPDH and U6 genes. Western blot analysis (b, lower right panel) verified the specific siRNA-mediated knockdown of JMJD2C. c, Core histories or nucleosomes from HeLa cells were incubated with recombinant JMJD2C (aa 12-349) or mutant JMJD2C H190A (aa 12-349). Western blots were decorated with the indicated antibodies against α-mono-, α-di-, or α-trimethyl H3K9.
FIG. 6: The integrity of core histones and nucleosomes is maintained during the demethylation assay. Core histones or nucleosomes from HeLa cells were incubated with recombinant JMJD2C (aa 12-349) or mutant JMJD2C H190A (aa 12-349). Western blots were decorated with α-H3 antibody.
The demethylation assays were performed as described^4. His-tagged proteins were incubated for 5 hours at 37° C. in demethylation buffer containing 50 mM HEPES-KOH pH 8.0, 2 mM ascorbate, 100 μM Fe(NH4)2(SO4)2, 1 mM α-ketoglutarate with 1 μg of nucleosomes or core histones purified from HeLa cells^22. The reaction mixture was analysed by SDS-PAGE followed by Western blotting using antibodies as indicated.

Molecule | methylation status of mono- and dimethyl H3K9 | demethylation of trimethyl H3K9
JMJD2C: Recombinantly expressed and purified His-tagged JMJD2C (aa 12-349), a JMJC domain-containing histone demethylase (protein, UniProt Q9H3R0 12-349, looked up, fragment, His-tag, Recombinantly expressed and purified His-tagged JMJD2C (aa 12-349), a JMJC domain-containing histone demethylase) PSCKIMTFRPSMEEFREFNKYLAYMESKGAHRAGLAKVIPPKEWKPRQCYDDIDNLLIPAPIQQMVTGQSGLFTQYNIQKKAMTVKEFRQLANSGKYCTPRYLDYEDLERKYWKNLTFVAPIYGADINGSIYDEGVDEWNIARLNTVLDVVEEECGISIEGVNTPYLYFGMWKTTFAWHTEDMDLYSINYLHFGEPKSWYAIPPEHGKRLERLAQGFFPSSSQGCDAFLRHKMTLISPSVLKKYGIPFDKITQEAGEFMITFPYGYHAGFNHGFNCAESTNFATVRWIDYGKVAKLCTCRKDMVKISMDIFVRKFQPDRYQLWKQGKDIYTIDHTKPT | not altered | very efficiently demethylates
JMJD2C H190A: enzymatically impaired mutant JMJD2C H190A (aa 12-349) (protein, left off: small tags and cut ends) PSCKIMTFRPSMEEFREFNKYLAYMESKGAHRAGLAKVIPPKEWKPRQCYDDIDNLLIPAPIQQMVTGQSGLFTQYNIQKKAMTVKEFRQLANSGKYCTPRYLDYEDLERKYWKNLTFVAPIYGADINGSIYDEGVDEWNIARLNTVLDVVEEECGISIEGVNTPYLYFGMWKTTFAWATEDMDLYSINYLHFGEPKSWYAIPPEHGKRLERLAQGFFPSSSQGCDAFLRHKMTLISPSVLKKYGIPFDKITQEAGEFMITFPYGYHAGFNHGFNCAESTNFATVRWIDYGKVAKLCTCRKDMVKISMDIFVRKFQPDRYQLWKQGKDIYTIDHTKPT | – | fails to demethylate
